In the RNAGym collection of RNA variant scans (doi:10.7554/elife.90254) one finds self-cleavage data, which are given here for 167 variants.

To fix the notation:
B1: LINE1-full (parent)
chain: UACGUAGGUGGUUUUCCCCUGAUAGUGCUAAGGGGGCCUGGAAGUUUGGACUGGGCAGAGCUCAACACAGCGUGGCAAAGUGGCUGUGGCUAGACUGCCUCUCUGGAUUCCUCGUCACUCAGCAGGGCAUCUCUGAGAGAAAUGCC

The variants in this series derive from B1. The experiment in a line: self-cleavage, relative activity (ratio to wild type); higher = more cleavage; in vitro, sequencing; the parent is a self-cleaving ribozyme.
On to G25A A124G, for which the self-cleavage came out at 0.63.

As for A22U G106U, the self-cleavage was found to be 1.72.

With A24G U134C, the self-cleavage was found to be 1.26.

Turning to A24G U134A, the self-cleavage was found to be 0.99.

For G25A U85A, the self-cleavage is 0.08.

As to U23A A65U, the self-cleavage came out at 0.53.

Regarding A24U A142C, the self-cleavage came out at 1.54.

For A24U A142G, the self-cleavage is 1.29.

As to A24U A138G, the self-cleavage turned out to be 0.94.

For the variant U23C A78U, the self-cleavage was determined as 2.06.

U23C U85C: the self-cleavage worked out at 0.22.

U23C U85A: the self-cleavage turned out to be 0.07.

Consider U23G U143C, for which the self-cleavage was 0.

Take G25A A107G: the self-cleavage was 0.88.

A24U G126A: the self-cleavage worked out at 1.34.

Take A24U G126U: the self-cleavage is 1.22.

U23C U143C: the self-cleavage came to 1.41.

For U23C C113A, the self-cleavage was found to be 0.4.

For the variant A22U, the self-cleavage is 1.11.

In the case of U23C U47C, the self-cleavage was found to be 1.32.

In the case of G25A U46A, the self-cleavage was 1.42.

Regarding U23A A142G, the self-cleavage was 1.12.

Turning to A24G U26A, the self-cleavage turned out to be 0.84.

Regarding U23C U46A, the self-cleavage was found to be 0.92.

With U23C U46C, the self-cleavage was 1.52.

In the case of A24G A117U, the self-cleavage stood at 1.09.

As for A24U U26C, the self-cleavage was found to be 0.97.

On to U23A U81A, for which the self-cleavage was found to be 1.7.

U23C A64G: the self-cleavage was determined as 0.35.

As for U23A A77U, the self-cleavage was determined as 1.24.

For U23C U108A, the self-cleavage is 1.33.

As to U23C U108C, the self-cleavage was 1.38.

A22U U62A: the self-cleavage came out at 0.

Regarding G25A U130C, the self-cleavage was 0.8.

U26A A42G: the self-cleavage is 1.02.

With U26A A42U, the self-cleavage was determined as 1.03.

U23C C56U: the self-cleavage was found to be 0.23.

For A24C A142C, the self-cleavage was found to be 1.13.

Turning to A24U A79G, the self-cleavage is 0.97.

Take A22U A129G: the self-cleavage stood at 2.09.

Take G25U U119A: the self-cleavage amounted to 1.69.

Take G25U U119C: the self-cleavage is 1.74.

With A24U G106A, the self-cleavage was found to be 1.51.

Regarding A24G U96A, the self-cleavage was determined as 0.11.

On to A24G U96G, for which the self-cleavage amounted to 0.

For the variant A24G U96C, the self-cleavage was found to be 0.31.

As to U23C A141G, the self-cleavage was determined as 1.4.

In the case of U23C C61A, the self-cleavage came to 0.06.

In the case of A22G U104C, the self-cleavage turned out to be 1.26.

For A22G U104A, the self-cleavage is 1.38.

For the variant A24G A65G, the self-cleavage is 0.3.

For the variant U23C C111U, the self-cleavage came out at 1.34.

For A22U U85A, the self-cleavage worked out at 0.08.

U23A A57G: the self-cleavage was found to be 0.94.

A24U U46A: the self-cleavage is 0.91.

Turning to U26A A31U, the self-cleavage was 1.43.

For G25C U91C, the self-cleavage came to 0.97.

As to A24G A129G, the self-cleavage came out at 1.19.

As to A24G A129C, the self-cleavage was determined as 0.71.

As for A24G U132A, the self-cleavage was determined as 1.12.

Turning to A24G U132C, the self-cleavage was 1.17.

For G25A U143A, the self-cleavage was 1.12.

For the variant A24U U62A, the self-cleavage came out at 0.03.

Turning to U23A A50G, the self-cleavage was determined as 1.25.

Regarding A24G A94G, the self-cleavage turned out to be 0.31.

Consider A24G A94U, for which the self-cleavage came to 0.49.

In the case of A22U U87A, the self-cleavage amounted to 0.1.

A22U U91A: the self-cleavage came to 0.3.

Regarding A22U U91C, the self-cleavage was determined as 0.2.

Regarding G25A G44A, the self-cleavage worked out at 1.16.

Take U23A A124G: the self-cleavage was 0.94.

For the variant G25A U109A, the self-cleavage came out at 1.72.

Take A24G C37U: the self-cleavage worked out at 0.83.

As to A24G C37A, the self-cleavage was 1.07.

In the case of U23A A64U, the self-cleavage came to 0.34.

U23A A64G: the self-cleavage worked out at 0.23.

As for A22U G25A, the self-cleavage amounted to 0.7.

On to U23C U26C, for which the self-cleavage amounted to 1.29.

For the variant U23C A136G, the self-cleavage came out at 1.27.

As for A22U A138G, the self-cleavage is 1.09.

A22U A138C: the self-cleavage stood at 0.92.

With A22G U108A, the self-cleavage worked out at 1.74.

As for U23C U119A, the self-cleavage worked out at 1.17.

For U23C U119C, the self-cleavage came out at 1.61.

As for A24G A140U, the self-cleavage came out at 0.9.

For the variant A24G A140G, the self-cleavage is 1.68.

Consider U26A A59U, for which the self-cleavage came out at 0.65.

Turning to A24G U85C, the self-cleavage is 0.

As to A24C A79U, the self-cleavage was 2.24.

In the case of A24G A79G, the self-cleavage came out at 0.95.

In the case of A24G A79U, the self-cleavage stood at 1.59.

In the case of A24G C111A, the self-cleavage stood at 1.74.

Consider A24U A94G, for which the self-cleavage came to 0.47.

In the case of A22U A24G, the self-cleavage was 1.95.

Consider U23C A31U, for which the self-cleavage was 0.77.

Turning to A24U U29A, the self-cleavage was found to be 1.12.

For A22U U119G, the self-cleavage came out at 2.23.

As to A24G A69G, the self-cleavage was found to be 0.92.

As to U23C G48A, the self-cleavage worked out at 1.44.

On to A22U A65G, for which the self-cleavage was found to be 0.14.

In the case of A24G G144A, the self-cleavage was found to be 1.35.

As for U23C G55U, the self-cleavage was found to be 0.22.

With A24U G83A, the self-cleavage is 1.07.

As to A22U A79G, the self-cleavage worked out at 0.96.

Take A22U U102A: the self-cleavage came to 1.41.

For A24U A117C, the self-cleavage turned out to be 1.6.

For A22U G126A, the self-cleavage is 1.5.

Turning to A24G A124G, the self-cleavage worked out at 1.06.

Regarding A24G A92G, the self-cleavage was determined as 0.2.

Turning to A24G A92C, the self-cleavage was 0.

In the case of A24U U132C, the self-cleavage turned out to be 1.07.

A24U U132A: the self-cleavage stood at 1.59.

As for A22U G34A, the self-cleavage is 0.82.

Regarding U23A A92G, the self-cleavage came to 0.12.

Regarding U23C C118U, the self-cleavage was found to be 1.81.

As for G25U A43C, the self-cleavage came to 1.32.

On to A24G U52C, for which the self-cleavage worked out at 0.12.

Consider U23A A67U, for which the self-cleavage amounted to 0.19.

As to U23C G35A, the self-cleavage is 1.4.

For U23C G93U, the self-cleavage amounted to 0.04.

For A24U A43G, the self-cleavage was determined as 1.33.

Regarding A24G A138U, the self-cleavage was 1.43.

Turning to A24U A129U, the self-cleavage is 1.26.

For the variant U23A A117G, the self-cleavage stood at 2.16.

For U23C U100A, the self-cleavage was found to be 1.3.

As for U23C U100C, the self-cleavage is 1.79.

Take A22U A121G: the self-cleavage is 1.

Take A24U G93A: the self-cleavage came to 0.06.

For G25A A67G, the self-cleavage was 0.5.

On to G25A A142C, for which the self-cleavage stood at 2.3.

As for G25A A142U, the self-cleavage is 0.93.

With A24G G54C, the self-cleavage came to 0.72.

With A24G G54A, the self-cleavage is 0.67.

Take A24G G54U: the self-cleavage is 0.68.

Take U23G G122U: the self-cleavage stood at 1.17.

As for U23C U130C, the self-cleavage came to 1.76.

For A24G U46A, the self-cleavage was 0.9.

As for A24G G35U, the self-cleavage turned out to be 1.15.

Take A22U A107U: the self-cleavage was determined as 1.96.

As for G25A A59G, the self-cleavage was 0.09.

For the variant A24C A124G, the self-cleavage was 0.98.

On to U23C A117G, for which the self-cleavage was 1.27.

Turning to U23C A117U, the self-cleavage amounted to 1.75.

On to A24U U143A, for which the self-cleavage turned out to be 1.13.

For the variant U23C G27A, the self-cleavage worked out at 1.8.

Consider G25A A43G, for which the self-cleavage came out at 1.27.

Turning to G25A U108C, the self-cleavage came out at 1.24.

As for A24G A107U, the self-cleavage was 1.05.

Regarding A24G U87A, the self-cleavage was determined as 0.03.

For the variant A24G C146U, the self-cleavage was determined as 1.61.

For the variant U23C A24C, the self-cleavage is 1.09.

Take U23C U87C: the self-cleavage was 0.25.

Turning to U23C A67U, the self-cleavage was 0.18.

In the case of A22U U39C, the self-cleavage came to 1.2.

On to U23A U85C, for which the self-cleavage came to 0.28.

On to G25U A65G, for which the self-cleavage turned out to be 0.01.

Take G25A A42G: the self-cleavage came to 1.38.

Take A24G G33A: the self-cleavage stood at 0.35.

For U23A C98U, the self-cleavage was 0.26.

Take G25C U85C: the self-cleavage came to 0.2.

For U23A U73A, the self-cleavage is 1.16.

Turning to A24C U134G, the self-cleavage came to 1.02.

On to U23A A136G, for which the self-cleavage turned out to be 1.31.

As for U23A A136U, the self-cleavage turned out to be 1.7.

With G25A U91C, the self-cleavage was 0.

Consider U23A U39A, for which the self-cleavage is 1.42.

With A22U U115C, the self-cleavage was found to be 1.77.
